Measurements as given in patent US9089565B2, “Compositions and methods for causing neurite outgrowth” (MEDICAL RESEARCH COUNCIL, priority 2009, dated 2015).

B1: BDNF: brain-derived neurotrophic factor, member of the neurotrophin nerve growth factor family, purchased from Merck (protein, UniProt P23560 19-247, looked up)
Neurotrophic factor BDNF …: APMKEANIRGQGGLAYPGVRTHGTLESVNGPKAGSRGLTSLADTFEHVIEELLDEDQKVRPNEENNKDADLYTSRVMLSSQVPLEPPLLFLLEEYKNYLDAANMSMRVRRHSDPARRGELSVCDSISEWVTAADKKTAVDMSGGTVTVLEKVPVSKGQLKQYFYETKCNPMGYTKEGCRGIDKRHWNSQCRTTQSYVRALTMDSKKRIGWRFIRIDTSCVCTLTIKRGR

What was measured:
[1] = test system: Entorhinal-hippocampal slices; assay: Regeneration of entorhinal-hippocampal projection in lesioned organotypic slice culture (Dil tracing); assay type: cell-based, mice; settings: slices treated with either PKA or ATP alone, 8 days
Method: (A) Organotypic culture of Entorhinal-hippocampal slices was prepared from 129X1/SvJJmsSlc (albino) mice postnatal day 5 and 6. Culture media were changed every 2 days. […], On the day in vitro (DIV) 10, the entorhinal-hippocampal projection was transected with sterile scalpel brade. The lesioned slices were cultured for 8 days with or without 1250 U/ml PKA and 100 μM ATP. On the DIV17, a small aliquot of Dil paste (Invitrogen) was applied on the entorhinal side of the transection. […] Location of lesion made at DIV 10 is indicated as a white dot line. (B) Intensity of Dil signal near the dentate gyrus was measured with ImageJ (version 1.42q, National institute of health, USA). Measured area (100 μm square) was indicated in (A) as a open white square. Intensity was indicated as a percentage of Dil signal in control (not lesioned). Experiment was repeated for 5 time in triplicate. Typical images are indicated in (A), and average of the 5 independent experiments was plotted in (B). A student t-test was used to assess statistical significance.
In FIG. 10, entorhinal-hippocampal slices from mice postnatal day 5 or 6 were transected on day in vitro (DIV) 10, and they were incubated with or without PKA and ATP for 8 days. […]

NgR1 = assay: Phosphorylation of endogenous NgR1 (upper band, immunoblotting) in RA-treated SH-SY5Y cells; assay type: cell-based, human; settings: BDNF treatment 24 hours
Method: (§1) FIG. 1. BDNF promotes neurite outgrowth of RA-treated SH-SY5Y, and induces phosphorylation of NgR1. (A) SH-SY5Y cells were incubated with indicated reagents. Cell images were taken with phase contrast microscopy. (B) Number of cells extending neurite-like structures of more than 40 μm and total cell number were counted from images taken in (A). More than 300 cells were examined in each sample. The proportion of cells extending neurite-like structures of more than 40 μm was indicated as a percentage of total cell number. An average of three experiments is shown. Error bars indicate S. E. between experiments. Data were analysed with student's t test. (C) Whole cell extracts were prepared from RA-treated SH-SY5Y cells after incubation with or without BDNF for 24 hours, and were analysed by SDS-PAGE. Immunoblotting was performed with the indicated antibodies. (D) Whole cell extract prepared from cells treated with both RA and BDNF was incubated with the indicated reagents for 1 hour at 37° C. Immunoblotting was performed with anti-NgR1 antibody. (E) RA-treated SH-SY5Y cells were incubated with BDNF in the presence or absence of one of the following: PKC inhibitor—500 nM Gö6983 or Gö6976; PKA inhibitor—2 μM KT5720 or a PKA inhibitor peptide 14-22; or either 500 nM or 1 μM of a casein kinase inhibitor, for 24 hours. Whole cell extracts prepared from these cells were analysed by SDS-PAGE. Immunoblotting was performed with anti-NgR1 antibody.
SH-SY5Y cells were cultured in Ham's F12 medium with 10% foetal bovine serum at 37° C. in 5% CO2 and 95% air. Passage numbers between 15 and 21 were used in experiments described in this paper. Further passages induce spontaneous differentiation and cells tend to extend neurites without BDNF (data not shown). For RA treatment, the cells are seeded (20,000 cells/well) on collagen IV coated 4 well chamber slides. After 24 hours culture, medium was changed to Ham's F12 medium containing 10 μM RA and 10% foetal bovine serum. Medium was changed to fresh medium on day 3 and cells were used for experiments after 5 days culture. Encinas et al. (18) reported that RA-treated SH-SY5Y cells initiate apoptosis after withdrawal of serum only when the cells are cultured at low density. The cell density used in this paper was higher than that in the paper by Encinas et al. (18) and cell death due to depletion of serum or BDNF was not significant. In this paper, the SH-SY5Y cells treated with RA for 5 days are called RA-treated SH-SY5Y. For BDNF treatment, the RA-treated SH-SY5Y cells were washed with serum-free Ham's F12 medium and incubated with 25 ng/ml BDNF in serum-free Ham's F12 medium for 24 hours. As a control (RA alone), the RA-treated SH-SY5Y cells were incubated with serum-free Ham's F12 alone for 24 hours.
Cells were scraped off from dishes and washed with PBS twice, and then resuspended in PBS containing 0.1% Triton X100 and phosphatase inhibitor cocktail (Roche) and EDTA-free protease inhibitor cocktail (Roche). After incubation for 15 min on ice, samples were centrifuged at 14,000×g for 20 min at 4° C. The supernatants containing 30 μg of proteins were analysed by SDS-PAGE and blotted to PVDF membrane. The PVDF membrane was incubated in blocking buffer (5% skimmed milk, 0.4% Triton X-100 in PBS) for 1 hour, first antibody diluted in the blocking buffer and appropriate secondary antibody labelled with horse radish peroxidase. Bound antibodies were visualised with ECL or ECL Plus kit (GE healthcare).

Nogo-A, LINGO-1 = assay: Immunoblotting of Nogo-A and LINGO-1 in RA-treated SH-SY5Y cells; assay type: cell-based, human; settings: after BDNF treatment 24 hours
Method: as §1, with “Immunoblotting was performed with anti-NgR1 antibody. (E) RA-treated SH-SY5Y cells were incubated with BDNF in the presence or absence of one of the following: PKC inhibitor—500 nM Gö6983 or Gö6976; PKA inhibitor—2 μM KT5720 or a PKA inhibitor peptide 14-22; or either 500 nM or 1 μM of a casein kinase inhibitor, for 24 hours.” left out, “Immunoblotting was performed with anti-NgR1 antibody.” left out
Cells were scraped off from dishes and washed with PBS twice, and then resuspended in PBS containing 0.1% Triton X100 and phosphatase inhibitor cocktail (Roche) and EDTA-free protease inhibitor cocktail (Roche). […] The supernatants containing 30 μg of proteins were analysed by SDS-PAGE and blotted to PVDF membrane. […]

| Molecule | location of Dil [1] | upper band of NgR1 (phosphorylated NgR1) (NgR1) | Nogo-A and LINGO-1 protein levels (Nogo-A, LINGO-1) |
| --- | --- | --- | --- |
| Nc1ncnc2c1ncn2[C@@H]1O[C@H](COP(=O)(O)OP(=O)(O)OP(=O)(O)O)[C@@H](O)[C@H]1O [ATP] | location of Dil was limited in the entorhinal side of the transection | – | – |
| B1 | – | increased | neither Nogo-A nor LINGO-1 showed significant changes |
